16 molecules from patent US20220153821A1 (PROTHENA BIOSCIENCES, published 2022) can be followed below.

Residue numbers refer to the chain shown, from its start.

B1: Hu3D6VHvb1 / Hu3D6VLvb1 (antibody, V domains shown)
VH: QVQLQQSGAELVKPGASVKLSCTASGFNIKDYYLHWVKQRPEQGLEWIGWIDPENGDTVYDPKFQGKATITADTSSNTAYLQLSSLTSEDTAVYFCSTLDFWGQGTTLTVSS
VL: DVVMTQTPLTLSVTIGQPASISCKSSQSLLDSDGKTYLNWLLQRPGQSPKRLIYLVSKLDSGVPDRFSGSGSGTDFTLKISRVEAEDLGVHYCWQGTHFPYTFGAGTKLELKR
notes: Humanized 3D6 variant, transiently expressed as intact antibody in HEK-293 cells; also called VHvb1/VLvb1
B2: Hu3D6VHvb4 / Hu3D6VLvb2 (antibody, V domains shown)
VH: EVQLVQSGAEVVKPGATVKISCKASGFTIKDYYLHWVRQRPGKGLEWIGWIDPENGDTIYDPKFQGRVTITADTSTDTAYMELSSLRSEDTAVYYCSTLDFWGQGTLVTVSS
VL: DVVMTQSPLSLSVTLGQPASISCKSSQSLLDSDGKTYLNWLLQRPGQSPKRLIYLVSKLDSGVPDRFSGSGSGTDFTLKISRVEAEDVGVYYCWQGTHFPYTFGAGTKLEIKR
notes: Humanized 3D6 variant, expressed as intact antibody in HEK-293 cells; also called VHvb4/VLvb2
B3: Hu3D6VHvb2 / Hu3D6VLvb3 (antibody, V domains shown)
VH: B2 VH with T17S, T28N, I59V, V68A, M81L, R87T, Y95F
VL: DVVMTQSPLSLSVTLGEPASISCRSSQSLLDSDGKTYLNWLQQRPGQSPRRLIYLVSKLDSGVPDRFSGSGSGTDFTLKISRVEAEDVGVYYCWQGTHFPYTFGQGTKLEIKR
notes: Humanized 3D6 variant, expressed as intact antibody in HEK-293 cells; also called VHvb2/VLvb3
B4: Hu3D6VHvb2 / Hu3D6VLvb2 (antibody, V domains shown)
VH: B2 VH with T17S, T28N, I59V, V68A, M81L, R87T, Y95F
VL: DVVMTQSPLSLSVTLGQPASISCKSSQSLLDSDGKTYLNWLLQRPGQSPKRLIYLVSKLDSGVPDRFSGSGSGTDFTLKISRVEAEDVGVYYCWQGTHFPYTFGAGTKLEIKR
notes: Humanized 3D6 variant, expressed as intact antibody in HEK-293 cells; also called VHvb2/VLvb2
B5: Hu3D6VHvb5 / Hu3D6VLvb3 (antibody, V domains shown)
VH: B2 VH with N55D, D57E
VL: B3 VL
notes: Humanized 3D6 variant, expressed as intact antibody in HEK-293 cells; also called VHvb5/VLvb3
B6: Hu3D6VHvb7 / Hu3D6VLvb2 (antibody, V domains shown)
VH: B2 VH with N55D, D57E, I59V
VL: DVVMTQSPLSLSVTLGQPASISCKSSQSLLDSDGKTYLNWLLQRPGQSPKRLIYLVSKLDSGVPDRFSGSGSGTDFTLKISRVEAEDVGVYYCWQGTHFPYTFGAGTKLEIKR
notes: Humanized 3D6 variant, expressed as intact antibody in HEK-293 cells; also called VHvb7/VLvb2
B7: Hu3D6VHvb3 / Hu3D6VLvb2 (antibody, V domains shown)
VH: B2 VH with T28N, V68A
VL: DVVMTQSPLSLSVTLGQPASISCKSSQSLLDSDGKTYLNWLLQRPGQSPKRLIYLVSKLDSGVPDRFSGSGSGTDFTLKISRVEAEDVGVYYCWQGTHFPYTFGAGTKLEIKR
notes: Humanized 3D6 variant, expressed as intact antibody in HEK-293 cells; also called VHvb3/VLvb2
B8: Hu3D6VHvb6 / Hu3D6VLvb2 (antibody, V domains shown)
VH: B2 VH with N55D, D57E, I59V, Y95F
VL: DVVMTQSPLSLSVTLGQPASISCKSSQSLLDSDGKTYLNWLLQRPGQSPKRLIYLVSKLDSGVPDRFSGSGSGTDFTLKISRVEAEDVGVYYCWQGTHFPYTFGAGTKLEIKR
notes: Humanized 3D6 variant, expressed as intact antibody in HEK-293 cells; also called VHvb6/VLvb2
B9: Hu3D6VHvb4 / Hu3D6VLvb3 (antibody, V domains shown)
VH: B2 VH
VL: B3 VL
notes: Humanized 3D6 variant, expressed as intact antibody in HEK-293 cells; also called VHvb4/VLvb3
B10: Hu3D6VHvb7 / Hu3D6VLvb3 (antibody, V domains shown)
VH: B2 VH with N55D, D57E, I59V
VL: B3 VL
notes: Humanized 3D6 variant, expressed as intact antibody in HEK-293 cells; also called VHvb7/VLvb3
B11: Hu3D6VHvb5 / Hu3D6VLvb2 (antibody, V domains shown)
VH: B2 VH with N55D, D57E
VL: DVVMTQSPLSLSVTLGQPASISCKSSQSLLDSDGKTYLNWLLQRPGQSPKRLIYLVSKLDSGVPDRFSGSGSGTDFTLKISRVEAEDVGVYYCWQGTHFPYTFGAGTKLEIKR
notes: Humanized 3D6 variant, expressed as intact antibody in HEK-293 cells; also called VHvb5/VLvb2
B12: Hu3D6VHvb3 / Hu3D6VLvb3 (antibody, V domains shown)
VH: B2 VH with T28N, V68A
VL: B3 VL
notes: Humanized 3D6 variant, expressed as intact antibody in HEK-293 cells; also called VHvb3/VLvb3
B13: Hu3D6VHvb6 / Hu3D6VLvb3 (antibody, V domains shown)
VH: B2 VH with N55D, D57E, I59V, Y95F
VL: B3 VL
notes: Humanized 3D6 variant, expressed as intact antibody in HEK-293 cells; also called VHvb6/VLvb3
B14: 8A4 (antibody, V domains shown)
VH: B1 VH with Q1E, K13R, S17L, T23K, L34I, K63Q, G66D, T69N, D90G, F95Y
VL: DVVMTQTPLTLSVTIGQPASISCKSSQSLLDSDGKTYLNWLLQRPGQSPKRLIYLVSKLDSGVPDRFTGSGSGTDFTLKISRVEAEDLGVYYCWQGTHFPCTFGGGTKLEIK
B15: anti-tau antibody 5G8 (antibody, V domains shown)
VH: EVQLQQSGAELVRSGASVRLSCTASGFNIKDYYMHWVRQRPEQGLEWIGWIDPENGDTVYAPKFQGKATMTSDTSSNTAYLHLSSLTSEDTAVYYCSPLDFWGQGTTLTVSS
VL: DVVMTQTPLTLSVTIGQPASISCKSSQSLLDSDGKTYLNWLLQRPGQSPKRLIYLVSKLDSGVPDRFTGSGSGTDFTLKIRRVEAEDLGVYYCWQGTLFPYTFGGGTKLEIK
B16: mouse 3D6 antibody (antibody, V domains shown)
VH: B1 VH with Q1E, E10D, K13R, S17L, T23K, K38R, S84G
VL: not shown
notes: Mouse monoclonal antibody from hybridoma; also called murine 3D6; m3D6

For the first experiment, the target named is T1, recombinant human tau (human, UniProt P10636-6 1-383, limits assumed).
T1 construct: also called recombinant tau
T1 sequence (P10636 other isoform, or with tags, fused parts or gaps limits assumed): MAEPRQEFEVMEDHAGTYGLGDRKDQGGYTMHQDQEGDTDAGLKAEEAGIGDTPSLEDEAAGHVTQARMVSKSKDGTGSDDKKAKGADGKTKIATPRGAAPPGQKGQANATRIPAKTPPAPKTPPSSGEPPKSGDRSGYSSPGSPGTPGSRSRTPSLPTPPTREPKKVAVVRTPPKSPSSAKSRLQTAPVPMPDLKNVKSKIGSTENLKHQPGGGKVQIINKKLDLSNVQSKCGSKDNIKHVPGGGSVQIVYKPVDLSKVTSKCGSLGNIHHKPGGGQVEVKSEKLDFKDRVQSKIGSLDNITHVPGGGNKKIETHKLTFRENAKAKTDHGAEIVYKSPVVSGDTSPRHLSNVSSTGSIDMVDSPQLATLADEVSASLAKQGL
The experiment is described as follows: SPR, Biacore T200, antibody captured by anti-human antibody, tau as analyte, single cycle, 1:1 fit. How it is done:
Affinity of purified humanized variants to tau were determined by surface plasmon resonance (SPR). SPR analysis was performed using a Biacore T200 to determine the binding kinetics of humanized antibodies to recombinant human tau. To prepare a sensor surface, anti-human antibody (GE Life Sciences) was immobilized on sensor chip CM3 via amine coupling, and antibody was captured at a level to ensure maximum binding of 50 RU. Various concentrations of recombinant tau ranging from 50-0.62 nM were passed over the captured ligand at a flow rate of 50 μL/min in running buffer (HBS+0.05% P-20, 1 mg/mL BSA), in a single cycle manner. Data were double-referenced to both an irrelevant sensor not containing antibody ligand, and 0 nM analyte concentration to account for the dissociation of ligand from the capture moiety. Data were then analyzed using a 1:1 fit. Results are presented in Table 9, in columns labeled “k₀ (M⁻¹s⁻¹), koff (s⁻¹), and Kd (nM).”
(In general: In SPR one partner is held on a chip, and binding of the other changes the refractive index at the surface.)
As a reminder, the Kd is the concentration at which binding is half-saturated. For orientation: koff means the rate constant with which the complex falls apart. For orientation: kon means a measure of how fast the partners come together. Consider B1, for which the Kd came out at 0.64 nM, the koff worked out at 0.0009 s⁻¹ and the kon amounted to 1.4e+06 M⁻¹ s⁻¹.

Turning to B2, the equilibrium dissociation constant (Kd) was 4.2 nM, the koff amounted to 0.0029 s⁻¹ and the kon is 690000 M⁻¹ s⁻¹.

Regarding B3, the Kd came to 0.19 nM, the dissociation rate constant (koff) came to 0.0003 s⁻¹ and the kon turned out to be 1.6e+06 M⁻¹ s⁻¹.

Regarding B4, the dissociation constant Kd was determined as 0.04 nM, the koff was 5.7e-05 s⁻¹ and the kon was 1.5e+06 M⁻¹ s⁻¹.

As for B5, the Kd worked out at 1.4 nM, the koff was found to be 0.0028 s⁻¹ and the kon is 2e+06 M⁻¹ s⁻¹.

Turning to B6, the equilibrium dissociation constant (Kd) came out at 0.252 nM, the koff worked out at 0.000779 s⁻¹ and the kon turned out to be 3.09e+06 M⁻¹ s⁻¹.

Consider B7, for which the Kd was 1.07 nM, the koff is 0.0015 s⁻¹ and the kon was 1.4e+06 M⁻¹ s⁻¹.

For B8, the Kd was 0.107 nM, the koff turned out to be 0.000369 s⁻¹ and the kon came out at 3.45e+06 M⁻¹ s⁻¹.

Turning to B9, the Kd turned out to be 3.74 nM, the koff is 0.0034 s⁻¹ and the on-rate constant (kon) turned out to be 910000 M⁻¹ s⁻¹.

With B10, the Kd turned out to be 0.209 nM, the koff is 0.00077 s⁻¹ and the on-rate (kon) is 3.69e+06 M⁻¹ s⁻¹.

With B11, the Kd came out at 1.44 nM, the koff is 0.0026 s⁻¹ and the on-rate constant (kon) stood at 1.8e+06 M⁻¹ s⁻¹.

On to B12, for which the Kd came to 1.13 nM, the koff came out at 0.0018 s⁻¹ and the kon was determined as 1.6e+06 M⁻¹ s⁻¹.

Regarding B13, the Kd came to 0.152 nM, the koff was 0.000538 s⁻¹ and the kon turned out to be 3.54e+06 M⁻¹ s⁻¹.

The target in another experiment is recombinant human tau (human, UniProt P10636 1-383). The experiment is described as follows: SPR, Biacore T200: antibody captured on anti-mouse CM5 chip, recombinant human tau 10-0.14 nM as analyte, global 1:1 fit. How it is done: (§1) Methods: SPR analysis was performed using a Biacore T200 to determine the binding kinetics of murine antibodies to recombinant human tau. To prepare a sensor surface, anti-mouse antibody (GE Life Sciences) was immobilized on sensor chip CM5 via amine coupling, and antibody was captured at a level to ensure maximum binding of 50 RU. Various concentrations of recombinant tau ranging from 10-0.14 nM were passed over the captured ligand at a flow rate of 50 μL/min in running buffer (HBS+0.05% P-20, 1 mg/mL BSA), for 180 sec association and 900 sec dissociation. Data were double-referenced to both an irrelevant sensor not containing antibody ligand, and 0 nM analyte concentration to account for the dissociation of ligand from the capture moiety. Data was then analyzed using a global 1:1 fit.
recombinant human tau (human, UniProt P10636 1-383), sequence (P10636 other isoform, or with tags, fused parts or gaps): as the sequence (P10636 other isoform, or with tags, fused parts or gaps limits assumed) above
(§2) Results: Multiple murine antibodies were selected based on their performance in a battery of ELISA assays, and their binding affinities were assessed via SPR. Antibodies were tested in parallel sets, and their binding association and dissociation rates were compared to select the highest binder to recombinant human tau.
As for B14, the dissociation constant Kd was 3.8 nM, the koff was found to be 0.00227 s⁻¹ and the kon stood at 599000 M⁻¹ s⁻¹.

Regarding B15, the Kd was 6.78 nM, the koff was found to be 0.00254 s⁻¹ and the kon is 375000 M⁻¹ s⁻¹.

The target in another experiment is T1, recombinant human tau. Described as above. The protocol:
as §1, §2
Regarding B16, the Kd was 0.46 nM, the koff was determined as 0.00119 s⁻¹ and the kon stood at 2.58e+06 M⁻¹ s⁻¹.
